# Measured values taken from US20240228612A1 (SICHUAN KELUN BIOTECH BIOPHARMACEUTICAL, published 2024).
# Changes are numbered by the printed parent chain. Read-outs that look alike come from different tables or passages of the source.
# T1: human Nectin-4 protein (human, UniProt Q96NY8 32-349)
# T1 construct: Purified protein used for coating in ELISA and as analyte in Octet; also called human Nectin-4 antigen
# T1 sequence (looked up): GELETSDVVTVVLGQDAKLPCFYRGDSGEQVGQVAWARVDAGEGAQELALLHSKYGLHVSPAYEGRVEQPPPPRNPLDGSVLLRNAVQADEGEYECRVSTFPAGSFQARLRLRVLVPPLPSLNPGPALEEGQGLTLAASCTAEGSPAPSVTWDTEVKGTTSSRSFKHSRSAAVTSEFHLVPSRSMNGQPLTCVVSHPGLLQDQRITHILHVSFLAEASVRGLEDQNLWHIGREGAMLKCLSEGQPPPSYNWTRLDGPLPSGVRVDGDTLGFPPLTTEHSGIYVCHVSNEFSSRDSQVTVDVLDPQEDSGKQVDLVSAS
# T2: human Nectin-4 on cell membrane surface (human, UniProt Q96NY8 32-510)
# T2 construct: whole, on cells; also called A549-Nectin-4; T24-Nectin-4
# T2 sequence (looked up): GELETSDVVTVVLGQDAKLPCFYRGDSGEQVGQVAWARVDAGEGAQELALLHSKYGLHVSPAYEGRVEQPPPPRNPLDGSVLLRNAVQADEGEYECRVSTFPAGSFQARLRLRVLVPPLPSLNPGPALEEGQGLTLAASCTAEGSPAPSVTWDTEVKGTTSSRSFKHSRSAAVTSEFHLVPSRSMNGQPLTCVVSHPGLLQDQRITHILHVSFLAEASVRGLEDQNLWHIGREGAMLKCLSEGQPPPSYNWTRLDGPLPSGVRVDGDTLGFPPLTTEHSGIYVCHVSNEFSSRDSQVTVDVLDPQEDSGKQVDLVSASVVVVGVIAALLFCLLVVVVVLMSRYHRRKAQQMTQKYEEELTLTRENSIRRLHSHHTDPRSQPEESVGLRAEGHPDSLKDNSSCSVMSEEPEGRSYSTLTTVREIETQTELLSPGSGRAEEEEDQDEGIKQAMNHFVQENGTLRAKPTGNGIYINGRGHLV
# B1: Enfortumab (antibody, V domains shown)
# VH: EVQLVESGGGLVQPGGSLRLSCAASGFTFSSYNMNWVRQAPGKGLEWVSYISSSSSTIYYADSVKGRFTISRDNAKNSLSLQMNSLRDEDTAVYYCARAYYYGMDVWGQGTTVTVSS
# VL: DIQMTQSPSSVSASVGDRVTITCRASQGISGWLAWYQQKPGKAPKFLIYAASTLQSGVPSRFSGSGSGTDFTLTISSLQPEDFATYYCQQANSFPPTFGGGTKVEIKR
# B2: anti-human Nectin-4 murine monoclonal antibody 31# (antibody, V domains shown)
# VH: EVQLQQPGADLVRPGASVKLSCKASGYTFTDYWMNWVKLRPGQGLEWIGMIHPSDSETRLNQKFKDKATLTVDKSSSTAYMQLSSPTSEDSAVYYCARWDFRIYYAMDYWGQGTSVTVSS
# VL: DVVITQSPSSLAMSVGQKVTMSCKSSQSLLNTNSQKNYLAWYQQKPGQSPKLLVYFASTRESGVPDRFIGSGSGTDFTLTITSVQAEDLADYFCQQHYSTPLTFGAGTKLEIK
# notes: Murine antibody purified by Protein A from hybridoma supernatant
# B3: anti-human Nectin-4 murine monoclonal antibody 56# (antibody, V domains shown)
# VH: QVQLKESGPGLVKPSQSLSLTCTVTGYSITSDYDWHWIRHFPGNMLEWMGYISFSGRTYYNPSLKSRISITHDTSKNHFFLRLNSVTTEDTATYYCARGNYDGFDYWGQGTTLTVSS
# VL: DIQLTQSPAILSVSPGERVSFSCRASQNIGTSIHWYQHRTNGSPRLLIKFASESISGIPSRFSGSGSGTDFTLSINSVESEDIADYYCQQSKSWPTYTFGGGTKLEIK
# notes: as for B2
# B4: anti-human Nectin-4 murine monoclonal antibody 74# (antibody, V domains shown)
# VH: EVQLQQPGAELVRPGASVKLSCKASGYTFINYWMNWVKQRPGQGLEWIGMIHPSDSATRLNQKFKDKATLTVDKSSSTAYMQLSSPTSEDSAVYYCARWGNFYTVNAWYYFDYWGHGTTLTVSS
# VL: B2 VL with V2I, S28T, T32S, S34T, V54F, D76N, T82S
# notes: as for B2
# Legend:
# [1] = biological target: T3, cynomolgus monkey Nectin-4 protein (cynomolgus monkey); experiment: ELISA, coated cynomolgus monkey Nectin-4, anti-human-HRP
# T3 construct: also called cynomolgus monkey Nectin-4 antigen
# [2] = biological target: T1, human Nectin-4 protein; experiment: competitive ELISA, coated Nectin-4; competitor biotin-labeled Nectin-1-hFc
# Experimental: Human Nectin-4 is linked to another Nectin-4 molecule or Nectin-1 molecule through the IgV domain. Because 31HZ, 56HZ and 74HZ all bind to the IgV domain of Nectin-4, the competitive activity of the three antibodies was detected by competitive ELISA. The specific steps were as follows: Nectin-4 protein was diluted to 2 μg/mL with CBS coating solution, 100 μL per well, and incubated at 37° C. for 2 hours; washing was performed once with 300 μL PBST, PBS (2% BSA) was then added, 100 μL per well, and incubation was performed at 37° C. for 2 hours; biotin-labeled Nectin-1-hFc was diluted with PBS (2% BSA) to 20 μg/mL; the antibody to be detected was diluted with PBS (2% BSA), wherein the dilution of 31HZ and 74HZ was started from 3.73 μg/mL, 3-fold dilution, and 9 concentration points, the dilution of 56HZ was started from 1.25 μg/mL, 2-fold dilution, and 10 concentration points; the above two diluted solutions were mixed well in equal volumes, and then added to the corresponding well at 100 μL/well, and incubation was performed at room temperature for 2 hours; washing was performed three times with 300 μL PBST; HRP-streptavidin was diluted with PBS (2% BSA) at a ratio of […], and added to the corresponding well at 100 μL/well, incubation was performed at room temperature for 1 hour; washing was performed five times with 300 μL of PBST; 100 μL of TMB was added to the corresponding well, color development was performed at room temperature for 10 minutes, and then terminated by adding 50 μL of 2N H₂SO₄, and a microplate reader was used for collecting readings at 450 nm.
# [3] = biological target: T1, human Nectin-4 protein; experiment: ELISA, coated human Nectin-4, anti-human-HRP
# [4] = biological target: T1, human Nectin-4 protein; experiment: ELISA, coated human Nectin-4, anti-human-HRP; remark: listed apart in the source
# [5] = biological target: T2, human Nectin-4 on cell membrane surface; experiment: flow cytometry on T47D cells
# Experimental: The specific steps were as follows: T47D cells were digested, resuspended by centrifugation, and washed twice with PBS; the cells were resuspended in PBS (containing 1% BSA), and spread into a 96-well tip-bottom plate at 3×10⁵ cells/well, with a volume of 50 μl per well; 50 μL of the antibody to be tested was added to each well, starting at a final concentration of […], 4-fold gradient dilution, a total of 10 concentration points; Human IgG was used as a negative control; after being mixed well, the resulting mixture was reacted in the dark at 4° C. for 1 hour; washing was performed 3 times with PBS, FITC-labeled anti-human Fc secondary antibody (brand: BioLegend, product number: 409322) was added, incubated at 4° C. for 0.5 hours in the dark; washing was performed 3 times with PBS, and detection was carried out using a flow cytometer (flow cytometer brand: Beckman, model: Cytoflex).
# [6] = biological target: T3, cynomolgus monkey Nectin-4 protein; experiment: BLI (Octet Fortebio), antibody on ProA sensor, Nectin-4 as analyte, 1:1 global fit
# Experimental: (§1) The dynamic affinity of anti-human Nectin-4 humanized monoclonal antibodies was detected using Octet Fortebio®. The main steps comprised: firstly, the anti-human Nectin-4 humanized monoclonal antibody (concentration of 5 μg/mL) was immobilized on ProA sensor, then subjected to binding reaction with human or cynomolgus monkey Nectin-4 (gradiently diluted to 400 nM, 200 nM, 100 nM, 50 nM, 25 nM, 12.5 nM, 6.25 nM, 0 nM), and the anchored product in the solid phase obtained through fully reaction was subjected to dissociation reaction in PBST buffer. After the completion of the experiment, the results were analyzed by using Data Analysis 11.0 software at 1:1 mode to perform global fitting, thereby obtaining the affinity constant of antibody to antigen.
# [7] = biological target: T1, human Nectin-4 protein; experiment: as above
# Experimental: as §1
# [8] = biological target: T1, human Nectin-4 protein; experiment: ELISA, coated human Nectin-4, anti-human-HRP; remark: listed apart in the source
# [9] = biological target: T3, cynomolgus monkey Nectin-4 protein; experiment: ELISA, coated antigen
# Text: (§2) The affinity of anti-human Nectin-4 humanized monoclonal antibodies to Nectin-4 protein of different species was detected by ELISA.
# [10] = biological target: T1, human Nectin-4 protein; experiment: ELISA, coated antigen
# Text: as §2
# [11] = biological target: T2, human Nectin-4 on cell membrane surface; experiment: flow cytometry on NCI-N87 cells
# [12] = biological target: T3, cynomolgus monkey Nectin-4 protein; experiment: ELISA, coated cynomolgus monkey Nectin-4, anti-human-HRP; remark: listed apart in the source
# [13] = biological target: T1, human Nectin-4 protein; experiment: ELISA, coated human Nectin-4
# Experimental: Human Nectin-4 (Sino Biological, Cat: 19771-H08H) was diluted to 1 μg/mL with carbonate (CBS) buffer, added to a 96-well plate at a volume of 100 μL/well, and placed at 4° C. for 16-20 h. The CBS buffer in the 96-well plate was discarded by pipetting, the plate was washed once with PBST (pH 7.4, PBS containing 0.05% Tween 20) buffer, added with 200 μL/well of skim milk powder (blocking solution) containing 2% PBST, incubated for 1 h at room temperature for blocking. The blocking solution was removed, and the plate was washed three times with PBST buffer. The anti-Nectin-4 mouse antibody to be tested was diluted with PBST/2% skim milk powder to an appropriate concentration, then added to the plate at a volume of 100 μL/well, and incubated at room temperature for 1.5 h. The reaction system was removed, and the plate was washed three times with PBST, and 50 μL/well of HRP-labeled goat anti-mouse IgG secondary antibody (purchased from the Jackson Laboratory) diluted with PBST/1% skim milk powder (dilution ratio 1:5000) was added, and incubated at room temperature for 1 h. After the plate was washed 3 times with PBST, 100 μL/well of TMB was added, and incubated at room temperature for 5-10 min for color development. The color development was stopped by adding 50 μL/well of 0.2 M sulfuric acid. Microplate reader was used to detect optical density (O.D.) at dual wavelengths 450/620 nm.
binder,measurement,setting,value
B1,EC50 (read off the curve),[1],~6 ng/mL
same,IC50,[2],27.1 ng/mL
same,EC50 (read off the curve),[3],~5 ng/mL
same,EC50 (read off the curve),[4],~9 ng/mL
same,EC50,[5],10.1 ng/mL
same,Kd,[6],33.6 nM
same,Kd,[7],28.3 nM
same,EC50 (read off the curve),[8],~7 ng/mL
same,EC50,[9],6 ng/mL
same,EC50,[10],7.1 ng/mL
same,EC50,[11],22.1 ng/mL
same,EC50 (read off the curve),[12],~7 ng/mL
B2,EC50,[13],0.0549 nM
B3,EC50,[13],0.0363 nM
B4,EC50,[13],0.0694 nM
